B1: 2X89.A-CCAA-biotin57 v42 (VHH)
VHH: QVQLQESGGGLVQAGGSLRLSCAASGYTDSQYAMGWYRQAPGKEREWVATISAGRDCTYYADSVKGRFTFSQDNAKNTVYLQMDSLKPEDTAVYYCATDIPLQATLITAKGGKGFQYWGQGTQVTVSS
B2: 2X89.A-CCAA-biotin57 v37 (VHH)
VHH: B1 VHH with Q31R, T50R, K113D, Q116R
B3: 2X89.A-CCAA-biotin57 v20 (VHH)
VHH: B1 VHH with D29S, I100S
B4: 4NBX.B-biotin103 v186: v149 plus Y101L/R107F/R56T/Y106K/D108A/Y110S, SEQ ID NO:5; the WT line of Table 2 (conjugate)
VHH: QVQLQESGGGLAQAGGSLRLSCAASGRTFSRSPMAWFRQPPGKEREFVAAGSSTGTTTYYADSVKGRFTISRDNAKNTVYLQMNSLKPEDTAVYYCAAAPLGCARKFAESAYWGQGTQVTVSSHHHHHH
B5: 4NBX.B-biotin103 v186_Fr + 1: v186_Fr with biotin103 moved to +1 position on CDR3, SEQ ID NO:7 (conjugate)
VHH: B4 VHH with A12V, F37Y, C103A, A104C
modifications: biotin conjugated; 4NBX.B-biotin103 v186_Fr +1
B6: 4NBX.B-biotin103 v186_Fr: v186 plus framework mutations A12V/F37Y, SEQ ID NO:6 (conjugate)
VHH: B4 VHH with A12V, F37Y
B7: 4NBX.B-biotin103 v186_Fr − 1: v186_Fr with biotin103 moved to −1 position on CDR3, SEQ ID NO:8 (conjugate)
VHH: B4 VHH with A12V, F37Y, G102C, C103A
modifications: biotin conjugated; 4NBX.B-biotin103 v186_Fr -1
B8: 4NBX.B-biotin103 v186 (VHH)
VHH: QVQLQESGGGLAQAGGSLRLSCAASGRTFSRSPMAWFRQPPGKEREFVAAGSSTGTTTYYADSVKGRFTISRDNAKNTVYLQMNSLKPEDTAVYYCAAAPLGCARKFAESAYWGQGTQVTVSS
B9: 4NBX.B-biotin103 v186_Fr -1 (VHH)
VHH: B8 VHH with A12V, F37Y, G102C, C103A
notes: also called -1 variant of 4NBX.B-biotin103 v186_Fr
B10: 4NBX.B-biotin103 v186_Fr +1 (VHH)
VHH: B8 VHH with A12V, F37Y, C103A, A104C
notes: also called +1 variant of 4NBX.B-biotin103 v186_Fr
B11: mSA (monomeric streptavidin construct), wild type (other)
chain: HHHHHHSQDLASAEAGITGTWYNQSGSTFTVTAGADGNLTGQYENRAQGTGCQNSPYTLTGRYNGTKLEWRVEWNNSTENCHSRTEWRGQYQGGAEARINTQWNLTYEGGSGPATEQGQDTFTKVKPSAASGSDYKDDDDK
notes: also called mSAWT
B12: Wildtype 4NBX.B: nanobody scaffold, chain B of PDB structure 4NBX, SEQ ID NO:1, unconjugated (protein)
VHH: QVQLQESGGGLAQAGGSLRLSCAASGRTFSMDPMAWFRQPPGKEREFVAAGSSTGRTTYYADSVKGRFTISRDNAKNTVYLQMNSLKPEDTAVYYCAAAPYGANWYRDEYAYWGQGTQVTVSSHHHHHH
modifications: 4NBX.B-WT
B13: 4NBX.B-biotin103: nanobody 4NBX.B A103C (SEQ ID NO:2) conjugated with biotin C2 maleimide at site 103 (conjugate)
VHH: B12 VHH with A103C
B14: 4NBX.B-biotin103 v149: 4NBX.B-biotin103 with M31R/D32S/N104A/W105R, SEQ ID NO:4; the WT line of Table 3 (conjugate)
VHH: B12 VHH with M31R, D32S, A103C, N104A, W105R
B15: 4NBX.B-biotin103 v119: 4NBX.B-biotin103 with M31H/D32A/N104S/W105H, SEQ ID NO:3 (conjugate)
VHH: B12 VHH with M31H, D32A, A103C, N104S, W105H
B16: 2X89.A-CCAA-biotin57 v5: final variant of 2X89.A-CCAA-biotin57 that accumulated 18 mutations, SEQ ID NO:14 (conjugate)
VHH: QVQLQESGGGLVQAGGSLRLSCAASGYTSSQYAMGWYRQAPGKEREWVATISAGADCTYYADSVKGRFTFSQDNAKNTVYLQMDSLKPEDTAVYYCATDSPLQATLITAKGGKGFQYWGQGTQVTVSSHHHHHH
B17: 2X89.A-CCAA-biotin57: nanobody 2X89.A, intra-CDR disulfide replaced by two alanines, biotin conjugated to site 57, SEQ ID NO:10 (conjugate)
VHH: QVQLQESGGGSVQAGGSLRLSCAASGYTDSRYAMAWFRQAPGKEREWVARINSGRDCTYYADSVKGRFTFSQDNAKNTVYLQMDSLEPEDTATYYCATDIPLRARDIVAKGGDGFRYWGQGTQVTVSSHHHHHH

The target of series [1] is B11. As to the kind of experiment: SPR, single-cycle injections of 2.5, 5, 10, 20 and 50 nM conjugate; target mSAWT by the text, not printed on the sheet; fit curve. For orientation: In SPR one partner is held on a chip, and binding of the other changes the refractive index at the surface.
Series [2] addresses B11. Briefly: SPR.
The target of series [3] is B11. Briefly: SPR, single-cycle injections of 2.5, 5, 10, 20 and 50 nM conjugate; target mSAWT by the text, not printed on the sheet; fit curve.
The conditions of series [4]: for aggregation / monomer stability on SEC: SEC traces. The method, then: Two additional rounds of CDR residue mutability analysis were performed followed by in-parallel combinatorial designs on v149 until no further CDR mutations were predicted to be energetically favorable. Mutations accumulated in previous rounds of design were kept intact in subsequent rounds.

Series [5] addresses mSA (monomeric streptavidin, mSAWT) (Streptomyces avidinii; Rhizobium etli, UniProt P22629+Q8KKW2). As to the kind of experiment: SPR binding against mSAWT. To be noted: for koff / dissociation rate, in words: mSAWT. From the text: Smt3 SUMO protein has an unstructured N-terminus and it was hypothesized this would minimize the interaction between the protein components.
Series [6] addresses B11. As to the kind of experiment: SPR, conjugate injected at 0.5, 1, 2.5, 5, 10 nM over immobilized mSAWT; fit curve.
In series [7] the target is B11. Briefly: SPR, single-cycle injections of 1, 2.5, 5, 10 and 20 nM conjugate over immobilized mSAWT; fit curve.
Series [8] deals with B11. The description is as above.
For series [9], the target named is T1, N-terminal biotinylated Smt3 SUMO protein (UniProt Q12306 2-98 = SUMO). As to the kind of experiment: SPR, Biotin_SUMO injected at 2.5, 10, 20, 50, 80 nM over immobilized mSAWT; fit curve; replicate 3.
For series [10], the target named is T1, N-terminal biotinylated Smt3 SUMO …. As to the kind of experiment: SPR, Biotin_SUMO injected at 2.5, 10, 20, 50, 80 nM over immobilized mSAWT; fit curve; one of three replicates.
Series [11] has the same target. As to the kind of experiment: SPR, Biotin_SUMO injected at 2.5, 10, 20, 50, 80 nM over immobilized mSAWT; fit curve; replicate 2.

Changes are numbered by the printed parent chain. Names and notes keep the numbering of the source. “Also recorded” adds a separate entry of the source.

One may read the Kd as a measure of binding affinity in units of concentration. Read a high Kd as a looser complex. Broadly, the koff is the rate constant with which the complex falls apart. Read a low koff as slow dissociation. One may read the kon as the rate constant with which the complex forms. In the case of B1, in series [1], the Kd came out at 3.32 nM, the koff is 0.00178 s⁻¹ and the kon is 540000 M⁻¹ s⁻¹.
Turning to B2, the binding result in series [2] is listed as “binds”.
Regarding B3, in series [3], the affinity, expressed as Kd, was 3.28 nM; the koff came to 0.00183 s⁻¹; the on-rate constant (kon) came to 560000 M⁻¹ s⁻¹.
For B4, the “aggregation / monomer stability on SEC” value in series [4] is recorded as “even worse aggregates formation than v149”. The “KD / measured affinity against mSAWT, comparison in words” value (“KD / measured affinity against mSAWT” for short) in [5] was “very similar KD as v149”.
For the molecule B5, the “KD / measured affinity against mSAWT” value in series [5] is given as “minimally different from the wildtype v186_Fr”.
In the case of B6, in [4], the “aggregation / monomer stability on SEC” value is listed as “significantly reduced aggregation”. For the same molecule, in series [4] (rerun on SEC), the “re-aggregation of collected fractions excluding the aggregates peak” value was “did not re-aggregate”.
In the case of B7, the “KD / measured affinity against mSAWT” value in [5] is “minimally different from the wildtype v186_Fr”.
In [6], B8 came in with a Kd of 0.33 nM, a koff of 0.00106 s⁻¹ and a kon of 3.23e+06 M⁻¹ s⁻¹.
In series [7], B9 came in with a Kd of 0.32 nM, a koff of 0.000986 s⁻¹ and a kon of 3.13e+06 M⁻¹ s⁻¹.
In the case of B10, the “fold weaker binding than the -1 variant” value in series [2] was around 2 fold. In [8], this molecule returned a Kd of 0.64 nM, a koff of 0.00138 s⁻¹ and a kon of 2.14e+06 M⁻¹ s⁻¹.
As to B11, in series [9], binding was characterised by a dissociation constant (Kd) of 10.4 nM, the koff is 0.00366 s⁻¹ and the kon came to 350000 M⁻¹ s⁻¹. For the same molecule, in series [10], the Kd worked out at 7.85 nM, the koff was determined as 0.00334 s⁻¹ and the kon was found to be 430000 M⁻¹ s⁻¹. In [11], this molecule gave a Kd of 10.5 nM, a dissociation rate constant (koff) of 0.00372 s⁻¹ and a kon of 360000 M⁻¹ s⁻¹.
For B12, in series [5] (concentrations up to 100 nM), the “binding signal to mSA” value is “did not show binding signal”.
In the case of B13, the “aggregation / monomer stability on SEC” value in series [4] is “single peaks”.
On to B14, for which, in series [4], the “aggregation / monomer stability on SEC” value was “very prone to aggregation”.
On to B15, for which the “aggregation / monomer stability on SEC” value in series [4] is given as “single peaks”. The “koff / dissociation rate, in words” value in [5] is “only minimally different”.
On to B16, for which the “aggregation / monomer stability on SEC” value in [4] was “eventually better than the 2X89.A-CCAA-biotin57 parent conjugate”. Moreover, the “koff / dissociation rate, in words” value in series [5] is reported as “relatively preserved”.
For B17 the same measures were “aggregated obviously” and “especially slow dissociation rate; also recorded: slightly better than the best designed 4NBX.B variant v186_Fr”.
